Experiment [1] concerns the target T1, mouse E-cadherin (form in the assay not stated) (mouse, UniProt P09803 157-709, limits assumed).
T1 construct: neither place states the form; also called the mouse E-cadherin
T1 sequence (looked up): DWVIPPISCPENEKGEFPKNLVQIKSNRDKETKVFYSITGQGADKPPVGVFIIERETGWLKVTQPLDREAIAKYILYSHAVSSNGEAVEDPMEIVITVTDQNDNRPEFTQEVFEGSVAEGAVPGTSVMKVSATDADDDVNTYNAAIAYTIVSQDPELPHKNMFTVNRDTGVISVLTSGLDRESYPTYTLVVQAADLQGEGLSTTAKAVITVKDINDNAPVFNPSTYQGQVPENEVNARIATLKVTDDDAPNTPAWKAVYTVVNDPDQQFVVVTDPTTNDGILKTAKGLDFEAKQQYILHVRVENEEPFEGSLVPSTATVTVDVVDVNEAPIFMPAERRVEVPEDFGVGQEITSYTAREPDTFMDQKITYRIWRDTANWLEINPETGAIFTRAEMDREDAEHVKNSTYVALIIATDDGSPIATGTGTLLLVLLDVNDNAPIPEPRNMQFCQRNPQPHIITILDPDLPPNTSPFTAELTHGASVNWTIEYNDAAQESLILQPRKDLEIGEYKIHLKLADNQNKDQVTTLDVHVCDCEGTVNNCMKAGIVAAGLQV
The experiment can be described thus: not described.

The target in experiment [2] is T1, mouse E-cadherin (form in the assay not …). The experiment can be described thus: ELISA of hybridomas.
The target in experiment [3] is T2, mouse E-cadherin on cells (endogenous on 4T1 and Py2T cells; expressed in colo205 cells) (mouse, UniProt P09803 157-884).
T2 construct: whole, on cells; also called endogenous mouse E-cadherin; mE-cadherin
T2 sequence (looked up): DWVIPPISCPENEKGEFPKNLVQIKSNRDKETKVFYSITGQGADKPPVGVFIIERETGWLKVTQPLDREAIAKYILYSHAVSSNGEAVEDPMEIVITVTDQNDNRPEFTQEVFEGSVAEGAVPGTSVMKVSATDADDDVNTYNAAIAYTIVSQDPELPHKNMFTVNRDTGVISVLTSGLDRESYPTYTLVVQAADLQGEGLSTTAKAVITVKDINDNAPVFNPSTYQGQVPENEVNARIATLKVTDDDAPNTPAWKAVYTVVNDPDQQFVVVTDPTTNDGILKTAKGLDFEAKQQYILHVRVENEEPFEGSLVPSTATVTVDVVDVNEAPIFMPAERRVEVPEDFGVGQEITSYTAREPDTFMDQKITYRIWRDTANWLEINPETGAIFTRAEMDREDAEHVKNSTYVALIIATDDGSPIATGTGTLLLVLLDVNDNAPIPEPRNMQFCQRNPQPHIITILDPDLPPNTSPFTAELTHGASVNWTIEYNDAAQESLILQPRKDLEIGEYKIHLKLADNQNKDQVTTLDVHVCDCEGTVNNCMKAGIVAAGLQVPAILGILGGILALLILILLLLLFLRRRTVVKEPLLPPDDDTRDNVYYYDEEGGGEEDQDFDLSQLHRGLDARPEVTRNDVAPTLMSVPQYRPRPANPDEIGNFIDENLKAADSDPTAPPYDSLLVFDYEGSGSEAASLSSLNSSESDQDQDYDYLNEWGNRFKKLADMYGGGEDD
The experiment in a line: immunofluorescence staining of parental 4T1 cells, antibody at 1 µg/mL for 7 hrs.

B1: mouse anti-human E-cad monoclonal antibody mAB-1_19A11 (antibody, V domains shown)
VH: QVQLKESGPGLVAPSQSLSITCTVSGFSLSRYGVHWVRQPPGKGLEWLGMMWGGGNTDYNSALKSRLSISKDNSKSQVFLKMNSLQTDDTAMYYCASSNYVLGYAMDYWGQGTSVTVSS
VL: DIVMTQSPSSLAMSVGQKVTMNCKSSQSLLNSSNQKNYLAWYQQKPGQSPKLLIYFTSTRGSGVPDRFIGSGSGTDFTLTISSVEAEDLADYFCQQHYRTPHTFGGGTKVEIK
notes: also called mAb 19A11
As to B1, the binding result in experiment [1] is listed as “no binding”.

B2: rabbit anti-mouse E-cad monoclonal antibody mAb-2_18-5 (antibody, mouse IgG1, V domains shown)
VH: EQLEESGGGLVKPGASLTLTCTASGFDLSTYFYMCWVRQAPGKGLEWIACIYVGSTGDTYYANWAKGRFTISKTSSTTVTLQMTSLTDADTATYFCARDIFATGINYYRALWGPGTLVTVSS
VL: AFELTQTPASVEAGVGGTVTIKCQASESINSWLSWYQQKPGQPPTLLIYSASTLASGVPSRFKGSRSGTQFTLTISDLECADAATYYCQSYYGTSTTAFGGGTEVVVK
notes: also called Whole IgG 18.5
With B2, the binding result in experiment [2] and in experiment [3] was “binds” throughout.
